From PMC10714721
Several values for one entry are separate records, joined by “and”; a condition that tells them apart may be missing. Equal entries are not always repeated.

Target: histidine-tagged VfmH (Dickeya dadantii)
Assay: not stated; oligomerization pattern of VfmH with or without c-di-GMP or ATP (Fig. S5); method not given

histidine-tagged VfmH (natural protein)
stoichiometry N: 6 and 2 and 3
